assay: yeast display, Sf9 membrane polyspecificity reagent, FACS + sequencing; frameworks hold sequencing errors
Outline: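 Nanobodies from a synthetic yeast display library (Saccharomyces cerevisiae BJ5465), induced 36–48 hours with galactose, were stained 1 hour at 4 °C with 10% biotinylated, detergent-solubilized Sf9 membrane reagent, enriched on streptavidin microbeads, then FACS-sorted. Anti-HA (expression) and streptavidin (reagent binding) fluorescence set low and high (top ~1%) gates. Polyreactivity labels come from the gate of origin. Genes were colony-PCR amplified, MiSeq 2 × 250 sequenced and filtered by CDR length.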

Sequence | polyreactivity (PSR sort gate)
QVQLVESGGALVQAGGRLRLSCAASGSTFYTYAMGWYRHAPGKEREIVAAISWSDDSTYYADSVKGRFTISRDNAKNTVYLQMTSLKPEDTAVYYCAAEWGQRGGGGYYYWGQGTQVTVSS | low polyreactivity
QVQLVESGGALVQAGGSLRLSCAASGFIFNHYAMGWYRQAPGKEREFVAAISWSGGSTYYADSVKGRFTISRDNAKNTVYLQMNSLKPEETAVYYCAASYNGLWHGDYDYWGQGTQVTVSS | low polyreactivity
QVQLVESGGALVQAGGSLRLSCAASGFIFSYYVMGWYRQAPGKERELVAAITTSGDSTYYADSVKGRFTISRDNAKNTVYLQMNSLKPEDTAVYYCAADIYYETIWHYGYWGQGTQVTVSS | high polyreactivity
QVQLVESGGALVQAGGSLRLSCAASGFIFYSWYAMGWYRQAPGKQRELVAAIRSGGSTYYADSVKGRFTISRDNAKNTVYLQMNSLKPEDTAVYYCAVKYSWSEYGYWGQGTQVTVSS | low polyreactivity
QVQLVESGGALVQAGGSLRLSCAASGFTFRGYAMGWYRQAPGKEMELVAAIRGGGGRTYYADSVKGRFTISRDNAKNTVYLQMNSLKPEDTAGYYCAASYYDYSDVRSDYWGQGTQVTVSS | high polyreactivity
QVQLVESGGALVQAGGSLRLSCAASGIIFRYNAMGWYRQAPGKDREVVAAISWSTGSTYYADSVKGRFTISRDNAKNTVYLQMNSLKPEDTAVYYCNAYWLRHIYNYWGQGSQVTVSS | high polyreactivity
QVQLVESGGALVQAGGSLRLSCAASGITFAYYAMGWYRQAPRKERELVASIRTGGSTYYADSVKGRFTISRDNAKNTVYLQMNSLKPEYTAVYYCARRYRTPYDYWGQGTQVTVSS | high polyreactivity
QVQLVESGGALVQAGGSLRLSCAASGITFFTNAMGWYRQAPGKERELVAAISSGGRTYYADSVKGRFTISRDNAKNTVYLQMKSLKPEDTAVYYCAKRSYFYPDYYWGQGTQVTVSS | high polyreactivity
QVQLVESGGALVQAGGSLRLSCAASGLIFYYYAMGWNRPAPGKERELVAAISGGGSTYYADSVKGRFTISRDNAKNTVYLQMNSLKPEDTAVYYCAASFRYPSWLYDYWGQGTQVTVSS | low polyreactivity
QVQLVESGGALVQAGGSLRLSCAASGRTFFGNAMGRYRQAPGKERELVAAISFSGGRTDYADSVKGRFTISRDNAKNTVFLQMNSLKPEDTAVYYCAARTYSAPRNRYYYWGQGTQVTVSS | high polyreactivity
QVQLVESGGALVQAGGSLRLSCAASGRTFGRYAMGWYRQAPGKEREFVASISRRGGTTYYADSVKGRFTLSRDNAKNTVYLQMNSLKPEDTGVYYCAKEGSPTNPWYGSYEYDYWGQGTQVTVSS | low polyreactivity
QVQLVESGGALVQAGGSLRLSCAASGRTFLGYGMGWYRQAPGKERVLVAAITSGGGSTYYADSVKGRFTISRDNAKNPVYLQMNSLKPEDTAVYYCSAKYYRAYCPHSRTRGYWGQGTQVTVSS | high polyreactivity
QVQLVESGGALVQAGGSLRLSCAASGSIFCYYAMGWYRQAPGKERELVAVINSGGRTNYADSVKGRFTISRDNAKNTVYLQMNSLKPEDTEVYYCAAQGYFVDRAGRYYRGDYWGQGTQVTVSS | high polyreactivity
QVQLVESGGALVQAGGSLRLSCAASGSIFVYNAMGWYIPAPGKERELVAAITSDGSTNYADSVKGRFTISRDNATNTVYLQMNSLKPEDNAVYYCNAGNDQYPSFEYDYWGQGTKVTVSS | low polyreactivity
QVQLVESGGALVQAGGSLRLSCAASGSIIVYNDMRSSRQAPGKQRELVAAITSSGGSTYYADSVKGRFTISRDNAKNTVYLQMNSLKPEDTAVYYCNVWDRPLTGYDYRGQGTQVTVSS | low polyreactivity
QVQLVESGGALVQAGGSLRLSCAASGSTFRKYSMGWYRQAPGKERELVAVITKSGGSTYYADSVKGRFTISRDNAKNTVYLQMNSLKPEDTAVYYCAARRGGARHDYWGQGTQVTVSS | high polyreactivity
QVQLVESGGALVQAGGSLRLSCAASGSTFYTYVMGWYRQAPGKQREVVADITWRGGSTYYADSENGRFTISRDNAKNTVYLLMNSLKPEDTPVYYCAALSGLLWYGRMYYWGQGTQVTVSS | high polyreactivity
QVQLVESGGALVQAGGSLRLSCAASRSIFWINAMGGYRQAPGTERELVADNDVSGGSTYYADTVKGRFTISRDNAKNTVYLKMNSLKPEDTEVYYCAADDYWAYLYYKTSEYDYWGQGTQVTVSS | low polyreactivity
QVQLVESGGALVQAGGSLRLSCAASRSTSKNYAMGWYRQAPGKERELVAAITRGTSTNYADSVKGRFTISRDNAKNTVYFQMNSLKPEDSAVYYCNVERHRVWDYQWREEDDYWGQGTQVTVSS | low polyreactivity
QVQLVESGGALVQAGGSLRLSCAPSGRIFDFKAIGWYRQAPGKEREFVAAITWGGGSTYYADSVKGRFSISRDNAKNSVYLPMNSLKPEVTAVYYCAADGWYYYQSWFNFGMDYWGQGTQVTVSS | low polyreactivity
QVQLVESGGALVQAGGSLRLSCASSGFIFGVYDMGWYRQAPGKERELVAAIDSVGSTYYADSVKGRFTISRDNAKNTVYLQMNSLKPEDTAVYYCAKDGSYQAYGYWGQGTQVTVSS | low polyreactivity
QVQLVESGGALVQAGGSLSLSCAASGFIFQPYAMGWYRQAPGKERELVAAITSRGGRTYYADSVMGRFTISRDNAKNTVYLQMNSLKPEDSAVYYCNADIYASEYYYWGQGTQVTVSS | low polyreactivity

Sequence | polyreactivity (PSR sort gate)
QVQLVESGGALVQAGGSLSLSCAASGSIFVGNAMGWYRQAPGKERELVAAINGGGTNYADSVKGRFTFSRDNAKNTVYLQMNSLKPEDTAVYYCAAPVRSNDSAYLHRDNDYWGQGTQVTVSS | low polyreactivity
QVQLVESGGALVQARGSLRLSSASSGSTFYPNAMGWYIQARGKEREFVAAISFSDGSTYYADSVKGRFTISRDNANNTVYLQMNSPKAEATAVYYCNKGASPDDYDYWGQGTQVTVSS | low polyreactivity
QVQLVESGGCLDQAGGSLRLSCAASGRIFNSNTMGWYRQAPGKERELVAAITYSGGSTYYADSVKGRFTISRDNAKNTVYLQMNSLKPEDTAVYYCAADFWEYDGPWYANDYYSWGQGTQVTVSS | low polyreactivity
QVQLVESGGCLDQAGGSLRLSWDASGRTFDFNAIGWYRQAPGKERELVAAITHSAGRTYYADSVKGRFTLSRDIAKNTVYLQMNSLKREDTAVYYCATRYYNYARTSYGYWGQGTQVTVSS | high polyreactivity
QVQLVESGGCLFQAGGSLRLSCAASGFNFPYYAMGWYRQAPGKERELVAAINRGGSTYYADSEKGRFTISRDNAKNTVYLQMNSLKPEDTAVFYCAAGYPSWYYGYPYDSWGQGTQVNVSS | low polyreactivity
QVQLVESGGCLVHAGGSLRLSCAASGRIFYTYAMGWYRQSPGNESELVAAISSRTVSTKYADSVKGRFTISRDNAKYTVYLQMNSLKPEDTAVYYCNVYSLRYGYDYCGQGTQVTVSS | high polyreactivity
QVQLVESGGCLVKAGGSLRISCAASGFTFTKYAMGWYRPAPGKESELVAAINRSGRTYYADSVKGRFTISRDNAKNTVYLQMNSLKPEDTAVYDCAAYTRYQYRAYDYWGQGTQVTVSS | high polyreactivity
QVQLVESGGCLVQAGCSLRLSCAASGRTFRTYVMGWYRQAPGKEREFVAGITWSSGSTRYADSVKGRFTISRDNAKNTVYLQMNSLKPEDTAVYYCNATPFYLLYSHTYIQYEGDYWGQGTQVTVSS | high polyreactivity
QVQLVESGGCLVQAGGRLRLSCAASGFTFNAYSMGWYRQAPGKERELVAAINVSGGITYYADSVKGRFTISRDNAKNTVYLQMNSLKPEDTAVYYCARDIRQYILYGRGDYWGQGTQVTVSS | low polyreactivity
QVQLVESGGCLVQAGGSHRLSCAASGSIFYIYAMGWYRQAPGKERELVASITFSGDITYYAYSVKGRFTISRDNAKNTFYLHMNSLKPEDTAVYYCAADYHEQSYAVTYDYWGQGTQVTVSS | low polyreactivity
QVQLVESGGCLVQAGGSIRLSCAAYGSNFDNAMGWSRPATGKERELGAAITSGGITNYADSVKGRFTISRDNAKNTVYLQMNSLKPEDTAVYYCNTLSPTQTKFDYWGQGTQVTVTS | low polyreactivity
QVQLVESGGCLVQAGGSLRFSCAASGLTFGRNAMGWYRQAPGTERELVAAISRSGGRTSYADSVKGRFTMSRDNAKNTVYLQMNSLKPEETAVYYCAARSDVYTHDYWGQGTQVTVSS | high polyreactivity
QVQLVESGGCLVQAGGSLRLICASSGFTFRAYAMGWYIKAPGKEREFVAAISRRGGSTSYADSVKGRFTISRDNAKNTVYLQMNSLKPEDTAVYYCAATYQILTTSAHDSWGQGTQVTVSS | high polyreactivity
QVQLVESGGCLVQAGGSLRLMCAASGSTFRVNAMGWSRQAPGKERELVAAITRGGSTNYADSVKGRFTISRDNAKNTVYLQMNSLKPEDTAVYYCNAGDDFGRYVPFSWGRFDYWGQGTQVTESS | low polyreactivity
QVQLVESGGCLVQAGGSLRLSCAASGFIFCGNARGGYIPAPGKERELVAVITRSGGSTYADSVKGRFTISRDNAKNTVYLQMNSLKPEVTAVYYCAADQQTWWQYSLINEYDYWGQGTQVTVSS | low polyreactivity
QVQLVESGGCLVQAGGSLRLSCAASGFIFDPYVMGWYIQAPGKERELVAAITYNGGRTYYADSVKGRFTISRDNAKNTVYLQMNSLKPEDTAVYYCNKDYRIGQTWYDYWGQVTQVTVSS | low polyreactivity
QVQLVESGGCLVQAGGSLRLSCAASGFIFSGYVMGWYRQAPGKERELVARIDGGGTTNYADSVKGRFTISRDNAKNTVYLQMNSLKPADTAVYYCNARFGEGFDYWGQGTQVTVSS | low polyreactivity
QVQLVESGGCLVQAGGSLRLSCAASGFIFSSYAMGWYRQAPGKERELVAAISVSGGSTNYADSVKGRFTISRDNAKNTVFLQMNSLKPEDTAVYYCAARVRDSLVYGGWDDYWGQGTQVTVSS | high polyreactivity
QVQLVESGGCLVQAGGSLRLSCAASGFTFIRYAMGWYRQAPGKERELVAAITVSGTRTYYADSVKGRFTISRDNAKNTVYLQMNSLKPEDTAVYYCNARDVYTGYGMGYWGQGSQVTVSS | high polyreactivity
QVQLVESGGCLVQAGGSLRLSCAASGFTFRWYTMGWYRQAPGKERELVAAITGSGCTTYYADSVKGRFTISRDYAKNSVYLQMNSLKPVDTAVYYCAVVTGSFRTRYTYYYLGQGTQVTVSS | high polyreactivity
QVQLVESGGCLVQAGGSLRLSCAASGFTFRYYAMGWYRQAPGKEREFVAAIRSSGTTTSYADSVKGRFRISRDYAKNTVYLQMNSLKPEDTAVYFCAAGYFGPQQYYYWCQGTQVTVSS | high polyreactivity
